The data set in a line: soluble on expression in E. coli; label from the status in PepcDB or PDB records.
“MGSDKIHHHHHHMTKPDMSKLASLSPFELKDELIKLASSDADRLMLNAGRGNPNFLATIPRHGFWQLGLFAMRESERSFSYMPEGVGGFPRREGIEERFDLFAREFAHVPGVSFLAGAVSYVRDQLGLNAGAFLYEMCEGILACNYPVPDRMLKLSEVIVGQYIRKEMIGNHPFIGEFDLFAVEGGTAAMTYLFNSIRENHLLKAGDTIALGMPIFTPYIEIPELNDYKLVELSVEADPGERWQYSNKELDKLRDPKVKAFFLVNPSNPPSVRMSDESLEYLASIIEERPDLIILTDDVYGTFADNFVSLFAMCPKNTILVYSFSKYFGATGWRLGVIATHRDNVFDEKIAALPDAARKELHERYTSITTEPDKLKFIDRLVADSRTVALNHTAGLSTPQQVQMVLFSLFSLMDTPDNYKIAMKRLIRNRKAALYREIGIAPEADDPNAVDYYTLLDIEALGGKALGPDFVKWVLASVEPNELLFRLAEDAGVVLLPGRGFGTRHPSGRVSLANLNESDYAKIGRSIRKLFEEYVEKYNEATGNKANKHVVKK”: the “soluble on expression in E. coli” value is reported as “not soluble”.

Turning to “MSLEEILIIDDSRQIADFLAETVLPYYGYRSRVVPTGWEGLAFLKQRQPDLILLDLQLPDTSGLDVLRQMGELGYDIPVILMTAHGTEQTAVEAFRLGAKNYLIKPFDASEAGAAIERALRERRLQREKEVLTRTLQQRLQELTILSSVGKSVTSLLDLEELLERIVDAGVYLTHAEEGYLLLRDGDELYLRAAKNLGEERVQRFRVKMDDNVAGQVIRTVKPIRLDRSQHQDLKLRTGLLVQAMLQVPLIVGRHAIGVLAVDNRVQQRTFSENDQYLLSAIADYAAIAIENSREGHHHHHH”, the “soluble on expression in E. coli” value is given as “soluble”. In the case of “MSLYVDAGLQPLDKNNKKLVQVHIPEGSSNKQIAAVLEESNVIKSGMVFNYYVKFKNLTDFQAGYYQMSPSMTLDEIGEMLKEGGTPEPTKIADGKVTIPEGYDIDKIGEAIEKNTDFKKADFIALMKNEDFFNQMKAKYPDLLESAATAEGVRYRLEGYLFPATYDYYKKATLPEFVEQMIAKMNTVMEQYTPTIHAKNLTNQQVLTLASLVEKEGVKEADRKQIAQVFFNRLAADMPIQSDISILYALGEHKETVTYADLEVDSSYNLYKNTGYGPGPLDSPSEESIKAVLNPTPSDYLYFVADISTGKVYFSKTYEEHQVLVDQYVNNSSSEEGHHHHHH” it was “soluble”; in that of “MGSDKIHHHHHHMKIYIMKQQMRQAKRVNYLDEHLNCLFYNGNPEIGFRHLTLQKGKTWCELSAKNNYFFFLLEGALIVDFNECVGYEVGKGEMIYLPRSADFKIFAKESADLIILSYGIPVQLCDKLSLSQLGAFITDFKYEFKSLDIRVPLDTFLKLLVKYLDSGMSCQHMHELKQKELFLILRAYYTKEEKVNFFYHSIAASLTFKDKVMGVYLEARTVQELADKCGYGLKTFQRLFYSCFSEVPSKWLMKQKAQHVKARLLDRDIPIKVILDEFGFSTYANFCNYCKRYVGDTPRNIRESVTLGFRK”, “not soluble”. Turning to “MGLMKKFRDYFLEEDYEDYDEEYEAPQPEEEAPPKTAGKANVVSLQSVQKSAKVVLAEPRVYAEAQEIADHLKSRRAVIVNLQRIQHEQAKRIVDFLSGTVYAIGGDIQQVGTKIFLCTPENVDVSGSISLDGEDDRPMKRW”, the “soluble on expression in E. coli” value is “not soluble”. In the case of “MPERLSRMSKKHKMVWGTLNGLDDWDYNVFELQAAIDGDDINCKNDQSGCGALFITMYALVVKYGFLRKFEINERIFLNWLSAVEGGYHANPYHNSMHAADVLHITHYLLSKGGLAELCKLNDRQVLAALFAAAIHDYNHPGINNNFSILTQTYNATLYNDRSVLENMHVASVFELMRNPALNILACFSEEHWRDFRNTVIDMVLATDMSLHEKYMTQFKRRLSEKRPFTEDCDQNLALAMALKLADISNCCRPLPLYLKWSERVSDEFYTQGDRERSLGMSCSPFMDRQTPMIAEGQTSFINYIFIPFLEVMAEFLPSMGFTLGLAAVCKSHRLVG” it was “soluble”; in that of “MIKQDVICYEKEDVVKRNNINITGGGEKTVLLAHGFGCDQNMWRFMLPELEKQFTVIVFDYVGSGQSDLESFSTKRYSSLEGYAKDVEEILVALDLVNVSIIGHSVSSIIAGIASTHVGDRISDITMICPSPCFMNFPPDYVGGFERDDLEELINLMDKNYIGWANYLAPLVMGASHSSELIGELSGSFCTTDPIVAKTFAKATFFSDYRSLLEDISTPALIFQSAKDSLASPEVGQYMAENIPNSQLELIQAEGHCLHMTDAGLITPLLIHFIQNNQTRA”, “soluble”. Turning to “MGSDKIHHHHHHMKFIVKTQMDMEAVAGNYIREVLPNAKVTIAPEGYPGIVIVESEEENALQKILEVPEVEKVYPVLIEVPANLDSIKSAADEIVKYIKEGETFAVRTKKRGKRDFSSVDVNVVLGARIKDLTNAEVNLSYPDKVVQVEIIGEKAYISVIPGKEYTKWKKYPKDKPDCRKLFRKLTIVQMPYWGDYKTARAFGEKIGRAAQAFEVKELIIAPKEKMNAYELMAFIRGVKEGQESRYQIQKEAYPWEVEKVPVTVWDLYQVIRDKRRNRRLIIITDPKGPTLNEVKDKLARDMYYAKEIIIFIGSREGIPIGLFRFADYVVDLAPYMTFATEHGIPATLVALWTIYEEELRRRGEIND”, the “soluble on expression in E. coli” value is reported as “not soluble”. In the case of “MGSDKIHHHHHHMSKNEIIWFDGKWSDSGVPMIGAADHAFWMASTVFDGARAINGHLPDLSAHSQRVINSALTMGMKPKIDRQEIERLVHEGMSHLTNQETDYYIKMLFFCPGGFLLPDADTTTFALHIFEAPLPEDKGFSATFSEYRRPAPSMAPTEAKASCLYPNTQRIIRDAIARGFENAVVLDSDGNVAEFAVANLWIVRDGVALTPTPNGSFLNGITRQRVMALLRDDGITVRETQLAPSDVMEADEVFSTGNHGKVLHCNRVEDRSLPYGPIAQRARELYMAYAHTC” it was “not soluble”; in that of “MKGMFTPGNGPVQISAEAIKKRVEELGGEIARDYQGKTPHLICVLNGAFIFMADLVRAIPLPLTMDFIAISSYGNAFKSSGEVELLKDLRLPIHGRDVIVVEDIVDTGLTLSYLLDYLEARKPASVRVAALLSKPSRRQVEVPIHYLGFEIEDAYVYGYGLDRAQFDRNLPFITSIRPEEE”, “soluble”; in that of “MGSDKIHHHHHHMIMLTVSDYLAQPVVSPDVSIRYGDHPDQFGDLYLPAQVHPAPVVMMIHGGCWQAAYPLTPLGECCAALRARGYAVWNLEYRRLGNGGGWPSTFLDVAAGADHLRVLAEHYPLDLNRVVVVGHSAGGHLALWLATRPKLPPTSPLYIPHPLPVHGVVALAAVADLRRGVTATACGTACLELIDNEESRCAEASPHARLPLDIPHYHLVGGDDPIVPASYVAAFVDAARQAGDLAHLTIVPKCGHFELTTPHSQAWQTVVQTIDKACSLNRS”, “not soluble”.

With “MAHTRSLQMLKAHSTRSALRQPQKKETGTNGNDPSVAPKNAQADSGKDERRGSQAMGWSCFGGCIKDEIFSVFGIGRKIIGRV”, the “soluble on expression in E. coli” value was “not soluble”.

Regarding “MNQQEFQLREITYQDIKDLLAIEREVYAGELPWTMSAFMAELGSKAPHLYLLAAINGKTVGFIGCRIQGTDAHITNVAVHTAYQGLGLGRSLIEETRIFAKKNRCETLSLEVRMSNVKAQRLYRKIGFVSQTVKKGYYDENNEDALEMIIDLKEE”, the “soluble on expression in E. coli” value is on record as “not soluble”. Take “MNKNLKFTQMMIGISTMALSFGSIQTHVSAEETASYNILQMKPIGTETSKDEIVHATKADETLTFEERLKVGDFSQRPTLVMERDEIQLKQSYTLAELNKMPNSELIDTLSKISWNQITDLFQFNQDTKAFYQNKERMNVIINELGQRGRTFTKENSKGIETFVEVLRSAFYVGYYNNELSYLKERSFHEKCLPALKAIAKNPNFTLGTAEQDRVVAAYGKLIGNASSDTETVQYAVNVLKQYNDNLTTYVSDYAKGQAVYEIVKGIDYDIQSYLQDTNKQPNETMWYGKIDNFINEVNRIALVGNITNENSWLINNGIYYAGRLGKFHSNPYKGLEVITQAMSLYPRLSGPYFVAVEQIKTNYGGKDYSGKAVDLQKIREEGKRQYLPKTYTFDDGSIVFKTGDKVTEEKIKRLYWAAKEVKAQYHRVIGNDKALEPGNADDVLTIVIYNNPDEYQLNRQLYGYETNNGGIYIEEKRTFFTYERTPKQSIYSLEELFRHEFTHYLQGRYEVPGLFGSGEMYQNERLTWFQEGNAEFFAGSTRTNNVVPRKSMISGLSSDPASRYTAKQTLFSKYGSWDFYKYSFALQSYLYNHQFDTFDKLQDLIRVNDVKNYDSYRESLSNNTQLNAEYQAYMQQLIDNQDKYNVPQVTNDYLIQHAPKPLAEVKNEIVDVANIKDAKITKYESQFFNTFTVEGKYTGGTSKGESEDWKTMSKQVNRTLEQLSQKGWSGYKTVTAYFVNYRVNAANQFEYDIVFHGVATEEKEKTNTIVNMNGPYSGIVNEEIQFHSDGTKSENGKVTSYLWNFGDGTTSTEANPTHVYEEKGTYTVELTVKDRRGKESKEQTKVTVKQDPQTGEFHEEEKVLLFNTLVKGNLVTPDQTDVYTFDVTDTKEVDISVVNEQNIGMTWVLYHESDMQNYVACGEDEGNVIKGKFEAKPGKYYLNVYKFDDKNGEYSLLVK”: the “soluble on expression in E. coli” value is “not soluble”. In the case of “SNAMNHTADNCIFCKIIDGQILCSKVYEDEHVLAFLDISQVTKGHTLVIPKVHKQDIFALTPEIASHIFSVVPKIANAIKAEFNPVGFNLLNNNGEKAGQTVFHFHLHLIPRYGENDGFGAVWKSHQNEYTMENLQNIASTIANSVK” it was “soluble”; in that of “MGSDKIHHHHHHMQEIVDQLAATIRAAAASNVPLRIRSGGTKDFYGQQDKGRDVAPEGILDPTAFAGIVDYEPTELVVTARTGTPLAQLETELNGRGQMLAFEPPHFGAGATLGGCIAAGLSGPRRASAGAVRDFVLGVRMLDGRGDDLSFGGRVMKNVAGYDIPRLMAGSLGTLGLLLEVSLKVLPLPAEERTLRLSMNEAVAIETMNRWAGKPLPVSATCFCEGELTVRLSGATSAVRAARAVLGGEEIVENSSFWKSIREQVHPFFRSGKQLWRLSIKSTTAPLSLPGKQLIEWGGAVRWLSVDAEMDNDAVETLVRKTAKEAGGHATLFRSRTPAAAVFHPLPPAMMNIHRQLKEKFDPMRIFNRGRLYPEL”, “not soluble”. In the case of “MEKKITLIPPPEFVQYVGGHFEEVGKEFMQYFIEIGNLKSNETVLDVGCGIGRMAVPLMNYLSDDGTYYGFDLFNKGITWCKNNISTRRNNFHFEHVDIYNQFYNPDGKEDASQYKFPYEDESFDFIFLTSVFTHLLPKELEHYVREIARVLKKDGRCFITFFLINPESSYYLNAGLSPLGFYHQIDNCYVLNKDIPNFAVAYPEEDIRTLLNKYGLEMQTPPHYGSWCGRTEHTSYQDIILAQKLEHHHHHH” it was “not soluble”. In the case of “GMMNTPESRLVAAGLELPEVAAALGNYEPYSIVGSQLMTSGQFPYLQGKLLYQGQLGADYTVSEGYAACRLATLNAIAQLKQACGELSRIKQIYRLEGVLNVHQSCIEHPKALDGASDLLLEIFGEAGRHSRMIWTNPVMPLNSLCLVYLFAEL” it was “soluble”; in that of “MAGHSKWANTRHRKAAQDAKRGKIFTKIIRELVTAAKLGGGDPDANPRLRAAVDKALSNNMTRDTLNRAIARGVGGDDDANMETIIYEGYGPGGTAIMIECLSDNRNRTVAEVRHAFSKCGGNLGTDGSVAYLFSKKGVISFEKGDEDTIMEAALEAGAEDVVTYDDGAIDVYTAWEEMGKVRDALEAAGLKADSAEVSMIPSTKADMDAETAPKLMRLIDMLEDCDDVQEVYHNGEISDEVAATL”, “soluble”; in that of “MINYPNLPNSALEITEQPEVKEITNELLKQLQNALNSNSLFSEQVELSLKGIVRILEVLLSLDFFKNANEIDSSLRNSIEWLNNAGESLKTKMKEYEGFFSDFNTSMRTNEQEVSATLNANTENIKSEIKKLENQLIETTTRLLTSYQIFLNNARDSANNQITANKTESLEALNQAKTSANNEITANQTQALTNINEAKENANNQITENKTQAITNINEAKNQSLSKH”, “not soluble”.

The values above are taken from the DeepSol protein solubility set.
